Measured values taken from patent US20150191546A1 (University of Texas, published 2015).

Legend:
[1] = biological target: T1, PR1/HLA-A*0201 on the cell surface (human); test: flow cytometry, 8F4 staining of MDA-MB-231 cells after 24 h with NE
T1 construct: also called PR1-pulsed T2 cells; PR1/HLA-A2 on HLA-A2+ AML blasts
Protocol: (§1) Mean 6 SEM fold increase of the MFI of PR1/HLA-A2 versus unpulsed cells is shown from duplicate experiments. ANOVA followed by Tukey test was performed using Prism 5.0 software (*p=0.01, **p, 0.0001).

[2] = biological target: T1, PR1/HLA-A*0201 on the cell surface; test: flow cytometry, 8F4 staining of MDA-MB-231 cells after 24 h with P3
Protocol: as §1

[3] = biological target: T2, recombinant PR1/HLA-A*0201 monomer (human); test: SPR (Biacore), 8F4 immobilized/captured, soluble PR1/HLA-A*0201 as analyte
T2 construct: Folded recombinant monomer; also called PR1/HLA-A2; PR-1/HLA-A2

[4] = biological target: T2, recombinant PR1/HLA-A*0201 monomer; test: SPR (BIAcore 3000), antibody captured on anti-mouse surface, peptide/HLA-A2 as analyte, 25 C; inset table, column KD (the text and the box under the plot round it to 9.9 nM)
Protocol: The test antibodies were captured onto anti-mouse antibody-coated surfaces. The analyte, peptide/HLA-A2, was diluted to 100 nM and tested in duplicate for binding to the antibody-coated surfaces. The analysis was performed at 25 C using PBS, 0.005% Tween-20, 0.1 mg/ml BSA, pH 7.4 as the running buffer.

[5] = biological target: T2, recombinant PR1/HLA-A*0201 monomer; test: ELISA, biotinylated PR1/HLA-A2 on streptavidin, anti-human kappa HRP
Protocol: An ELISA plate was first coated with 100 μl/well of 5 μg/ml streptavidin (Jackson ImmunoResearch, West Grove, Pa.) in PBS. After washing wells with Wash Buffer (PBS containing 0.05% Tween 20) and blocking with Block Buffer, 50 μl/well of 2 μg/ml biotinylated PR1/HLA-A2, which had been provided by Dr. Molldrem, was added. After 30 min incubation at room temperature, the ELISA plate was washed with Wash Buffer. […] After incubating the ELISA plate for 1 hr at room temperature and washing with Wash Buffer, bound antibodies were detected using 100 μl/well of 1/2,000-diluted HRP-conjugated goat anti-human kappa chain polyclonal antibody. After incubating for 30 min at room temperature and washing with Wash Buffer, color development was performed by adding 100 μl/well of ABTS substrate. Color development was stopped by adding 100 μl/well of 2% oxalic acid. Absorbance was read at 405 nm.

[6] = biological target: T2, recombinant PR1/HLA-A*0201 monomer; test: ELISA on PR1/HLA-A2 monomer-coated plate, anti-human detection [panel B]
Description: (§2) The inventors used recombinant PR1/HLA-A2 monomer-coated plates to capture the antibody, and anti-human antibodies were used in a colorimetric assay to determine the bound fraction by optical density (OD).

[7] = biological target: T2, recombinant PR1/HLA-A*0201 monomer; test: ELISA on recombinant PR1/HLA-A2 monomer-coated plates; Hu8F4-2 (Hu2)
Description: as §2

[8] = biological target: T2, recombinant PR1/HLA-A*0201 monomer; test: ELISA on recombinant PR1/HLA-A2 monomer-coated plates; Hu8F4-1 (Hu1)
Description: as §2

Row | Binder | EC50 [5] | EC50 (read off the curve) [6] | also measured
1 | 8F4 mouse monoclonal antibody (IgG2a-kappa, anti-PR1/HLA-A*0201) (antibody, V domains shown, In the flow cytometry and confocal assays the antibody carried an Alexa Fluor 647 label; the letters do not carry it., Mouse IgG2a-kappa from hybridoma; Used with Alexa-647 label in flow cytometry and confocal assays; also called mouse 8F4; 8F4-4) VH: EVQLVESGGDLVKPGGSLKLSCAASGFTFSGYGMSWVRQTPDKRLEWVATISSGGSYTYYPDSVKGRFTISRDNAKNTLYLQMSSLKSEDTAMYYCARHEGGYYGSSPAWFVYWGQGTLVTLSA VL: DIVMTQSHKFMSTSVGDRVSITCKASQDVSTAVAWYQQKPGQSPKLLIYSTSYRYTGVPDRFTGSGSGTVFTFTINSVQAEDLAVYYCQQHFITPPTFGGGTKLEIK |  |  | fold increase in PR1/HLA-A2 (8F4 MFI) versus unpulsed cells [1]: 2.5 fold; fold increase in PR1/HLA-A2 (8F4 MFI) versus unpulsed cells [2]: 3 fold; Kd [3]: 9.9 nM; Kd [4]: 9.85 nM
2 | Hu8F4-2 humanized 8F4 IgG1/kappa antibody (Hu8F4 VH and VL2) (antibody, VL2 has Asp instead of Val at position 70 of VL1; also called Hu2-8F4; Hu2) heavy: not shown light: DIQMTQSPSSLSASVGDRVTITCKASQDVSTAVAWYQQKPGKAPKLLIYSTSYRYTGVPSRFSGSGSGTDFTFTISSLQPEDIATYYCQQHFITPPTFGGGTKVEIKRTVAAPSVFIFPPSDEQLKSGTASVVCLLNNFYPREAKVQWKVDNALQSGNSQESVTEQDSKDSTYSLSSTLTLSKADYEKHKVYACEVTHQGLSSPVTKSFNRGEC | 0.07 µg/mL | ~0.008 µg/mL | Kd [7]: 7.8 nM

Now from value to binder, other results behind:

Row | EC50 [5] | EC50 (read off the curve) [6] | Binder | also measured
3 | 0.054 µg/mL | ~0.008 µg/mL | Ch8F4 chimeric 8F4 IgG1/kappa antibody (antibody, V domains shown, Mouse 8F4 VH/VL on human gamma-1 and kappa constant regions) VH: EVQLVESGGDLVKPGGSLKLSCAASGFTFSGYGMSWVRQTPDKRLEWVATISSGGSYTYYPDSVKGRFTISRDNAKNTLYLQMSSLKSEDTAMYYCARHEGGYYGSSPAWFVYWGQGTLVTLSA VL: DIVMTQSHKFMSTSVGDRVSITCKASQDVSTAVAWYQQKPGQSPKLLIYSTSYRYTGVPDRFTGSGSGTVFTFTINSVQAEDLAVYYCQQHFITPPTFGGGTKLEIKR | 
4 | 0.05 µg/mL | ~0.008 µg/mL | Hu8F4-1 humanized 8F4 IgG1/kappa antibody (Hu8F4 VH and VL1) (antibody, V domains shown, Human IgG1/kappa; also called Hu1-8F4; Hu1) VH: EVQLVESGGGLVQPGGSLRLSCAASGFTFSGYGMSWVRQAPGKGLEWVATISSGGSYTYYPDSVKGRFTISRDNAKNSLYLQMNSLRAEDTAVYYCARHEGGYYGSSPAWFVYWGQGTMVTVSS VL: DIQMTQSPSSLSASVGDRVTITCKASQDVSTAVAWYQQKPGKAPKLLIYSTSYRYTGVPSRFSGSGSGTVFTFTISSLQPEDIATYYCQQHFITPPTFGGGTKVEIKR | Kd [8]: 7.7 nM
5 | 0.07 µg/mL |  | Hu8F4-2-AA humanized 8F4 IgG1-AA/kappa antibody (antibody, Hu8F4 VH and VL2 on human IgG1 with Leu234Ala and Leu235Ala (Eu numbering); Signal peptide may be included) heavy: not shown light: DIQMTQSPSSLSASVGDRVTITCKASQDVSTAVAWYQQKPGKAPKLLIYSTSYRYTGVPSRFSGSGSGTDFTFTISSLQPEDIATYYCQQHFITPPTFGGGTKVEIKRTVAAPSVFIFPPSDEQLKSGTASVVCLLNNFYPREAKVQWKVDNALQSGNSQESVTEQDSKDSTYSLSSTLTLSKADYEKHKVYACEVTHQGLSSPVTKSFNRGEC | 
